Measurements published in patent US20250043016A1 (SANYOU BIOPHARMACEUTICALS, published 2025).

Target: T1, recombinant human TNFR2 (SinoBiological, 10417-H03H) (human, UniProt P20333 23-257)
T1 construct: Bought protein; also called human recombinant TNFR2
T1 sequence (looked up): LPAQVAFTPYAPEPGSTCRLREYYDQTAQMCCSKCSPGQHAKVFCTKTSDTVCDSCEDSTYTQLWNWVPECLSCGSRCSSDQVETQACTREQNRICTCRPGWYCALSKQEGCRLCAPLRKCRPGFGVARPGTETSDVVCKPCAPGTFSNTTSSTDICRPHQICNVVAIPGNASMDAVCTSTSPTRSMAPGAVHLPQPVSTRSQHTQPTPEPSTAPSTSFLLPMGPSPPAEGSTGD
Test: ELISA on plate-coated recombinant human TNFR2, detection with anti-camelid-VHH-HRP; the axis is the lysate concentration
Procedure: The prepared positive clone lysate was subjected to ELISA affinity detection. The specific method was as follows: a 96-well ELISA plate was coated with 2 μg/mL recombinant human TNFR2 and incubated overnight at 4° C.; the next day, the well plate was washed 3 times with PBST, 5% skim milk was added, and blocking was performed for 2 h; subsequently, the well plate was washed 3 times with PBST, gradiently diluted positive clone lysates were added, and incubation was performed for 1 h; subsequently, the well plate was washed 3 times with PBST, Rabbit Anti-Camelid-VHH-HRP (Genescript, A01861-200) diluted at 1:8000 was added, and incubation was performed for 1 h; subsequently, the well plate was washed 6 times with PBST, TMB (SurModics, TMBS-1000-01) was added for color development in the dark for 5-10 min, and 2 M HCl was added to stop the reaction according to the color development results; the values at OD450 were read by a microplate reader (Molecular Devices, SpecterMax 190) and fitted by four parameters.

B1: NB92-161 VHH (positive clone lysate from E. coli) (VHH)
VHH: EVQLVESGGGLVQPGGSLRLSCAASGSIFSINDMGWYRQAPGKQRELVAAIGRGGGSTNYADSVKGRFTISRDNAKNTVYLQMNSLKPEDTAVYYCHAEISQLTWAFRDYWGQGTQVTVSS
notes: Tested as crude bacterial lysate from the phage display vector
Q: B1 was tested. Which “EC50 (read off the curve)” value did it give?
A: ~0.2 µg/mL
